Laboratory results published in PMC9482650, “Quantitative fragmentomics allow affinity mapping of interactomes” (Nature Communications, 2022).

Legend:
Experiment in all cases: holdup assay
Set-up in all cases: key: below the threshold = too weak to quantify, mostly under pKd 3.1 to 4
APBA1_2, Q02410 = target: T1, APBA1_2, Q02410
T1 sequence (Q02410 742-832, limits assumed, looked up): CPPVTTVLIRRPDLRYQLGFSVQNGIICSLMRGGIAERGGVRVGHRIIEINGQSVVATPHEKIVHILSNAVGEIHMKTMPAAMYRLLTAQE

APBA2_1, Q99767 = target: T2, APBA2_1, Q99767
T2 sequence (Q99767 563-664, limits assumed, looked up): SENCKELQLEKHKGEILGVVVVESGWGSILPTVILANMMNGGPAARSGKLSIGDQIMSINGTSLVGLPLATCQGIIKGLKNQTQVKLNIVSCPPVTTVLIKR

CASK, O14936 = target: CASK, O14936
Sequence of CASK, O14936 (O14936 487-570): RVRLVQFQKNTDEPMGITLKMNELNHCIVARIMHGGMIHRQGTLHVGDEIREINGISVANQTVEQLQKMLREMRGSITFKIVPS

DLG1_3, Q12959 = target: DLG1_3, Q12959
Sequence of DLG1_3, Q12959 (Q12959 457-571): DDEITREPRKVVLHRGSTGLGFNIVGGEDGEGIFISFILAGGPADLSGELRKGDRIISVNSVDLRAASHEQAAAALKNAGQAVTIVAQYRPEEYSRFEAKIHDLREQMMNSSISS

DLG3_3, Q92796 = target: T3, DLG3_3, Q92796
T3 sequence (Q92796 374-475, limits assumed, looked up): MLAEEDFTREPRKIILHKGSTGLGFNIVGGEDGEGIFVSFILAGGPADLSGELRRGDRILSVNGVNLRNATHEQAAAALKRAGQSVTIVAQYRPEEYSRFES

DLG4_3, P78352 = target: DLG4_3, P78352
Sequence of DLG4_3, P78352 (P78352 306-403): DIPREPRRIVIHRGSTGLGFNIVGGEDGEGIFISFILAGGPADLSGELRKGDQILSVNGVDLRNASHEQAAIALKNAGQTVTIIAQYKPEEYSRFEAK

DVL3, Q92997 = target: T4, DVL3, Q92997
T4 sequence (Q92997 244-331, limits assumed, looked up): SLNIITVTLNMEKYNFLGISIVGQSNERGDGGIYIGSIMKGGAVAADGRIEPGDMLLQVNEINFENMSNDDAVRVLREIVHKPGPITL

FRMPD1, Q5SYB0 = target: T5, FRMPD1, Q5SYB0
T5 sequence (Q5SYB0 52-145, limits assumed, looked up): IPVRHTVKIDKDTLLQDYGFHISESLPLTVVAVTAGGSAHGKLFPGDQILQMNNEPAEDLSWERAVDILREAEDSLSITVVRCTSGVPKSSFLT

FRMPD2_1, Q68DX3 = target: FRMPD2_1, Q68DX3
Sequence of FRMPD2_1, Q68DX3 (Q68DX3 770-861): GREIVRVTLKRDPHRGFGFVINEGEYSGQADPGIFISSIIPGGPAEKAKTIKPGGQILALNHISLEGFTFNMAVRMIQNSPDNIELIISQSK

FRMPD2_2, Q68DX3 = target: FRMPD2_2, Q68DX3
Sequence of FRMPD2_2, Q68DX3 (Q68DX3 944-1038): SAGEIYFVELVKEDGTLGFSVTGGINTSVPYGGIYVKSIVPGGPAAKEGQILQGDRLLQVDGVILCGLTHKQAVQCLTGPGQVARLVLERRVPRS

FRMPD2_3, Q68DX3 = target: FRMPD2_3, Q68DX3
Sequence of FRMPD2_3, Q68DX3 (Q68DX3 1073-1166): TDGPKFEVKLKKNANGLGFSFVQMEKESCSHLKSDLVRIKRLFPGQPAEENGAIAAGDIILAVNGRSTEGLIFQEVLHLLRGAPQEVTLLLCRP

GOPC, Q9HD26 = target: GOPC, Q9HD26
GORASP1, Q9BQQ3 = target: GORASP1, Q9BQQ3
Sequence of GORASP1, Q9BQQ3 (Q9BQQ3 1-208): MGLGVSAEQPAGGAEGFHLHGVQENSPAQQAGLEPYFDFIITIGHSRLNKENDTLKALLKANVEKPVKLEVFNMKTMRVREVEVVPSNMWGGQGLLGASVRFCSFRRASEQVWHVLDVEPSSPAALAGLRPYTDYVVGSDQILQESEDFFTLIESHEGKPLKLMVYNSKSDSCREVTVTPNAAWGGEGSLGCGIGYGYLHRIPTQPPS

GRIP1_7, Q9Y3R0 = target: T6, GRIP1_7, Q9Y3R0
T6 sequence (Q9Y3R0 999-1096, limits assumed, looked up): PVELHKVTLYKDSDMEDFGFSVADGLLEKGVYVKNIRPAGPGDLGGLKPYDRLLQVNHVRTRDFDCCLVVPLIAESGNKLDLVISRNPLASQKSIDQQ

Inadl_1, Q8NI35 = target: Inadl_1, Q8NI35
Sequence of Inadl_1, Q8NI35 (Q8NI35 113-229): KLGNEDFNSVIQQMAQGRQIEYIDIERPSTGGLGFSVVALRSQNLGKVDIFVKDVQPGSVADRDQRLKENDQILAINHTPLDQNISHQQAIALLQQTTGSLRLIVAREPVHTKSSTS

Inadl_5, Q8NI35 = target: Inadl_5, Q8NI35
Sequence of Inadl_5, Q8NI35 (Q8NI35 673-780): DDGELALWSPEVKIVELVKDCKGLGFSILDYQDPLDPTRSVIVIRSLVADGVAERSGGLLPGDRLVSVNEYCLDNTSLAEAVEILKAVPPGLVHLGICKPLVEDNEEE

LAP2, Q96RT1 = target: LAP2, Q96RT1
Sequence of LAP2, Q96RT1 (Q96RT1 other isoform, or with tags, fused parts or gaps): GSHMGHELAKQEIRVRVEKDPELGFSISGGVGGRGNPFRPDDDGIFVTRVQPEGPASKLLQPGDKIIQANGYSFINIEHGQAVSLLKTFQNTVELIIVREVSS

LIN7C, Q9NUP9 = target: T7, LIN7C, Q9NUP9
T7 sequence (Q9NUP9 88-185, limits assumed, looked up): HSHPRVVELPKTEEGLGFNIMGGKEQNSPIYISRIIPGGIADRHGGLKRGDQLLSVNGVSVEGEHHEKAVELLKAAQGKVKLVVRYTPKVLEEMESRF

LNX1_3, Q8TBB1 = target: LNX1_3, Q8TBB1
Sequence of LNX1_3, Q8TBB1 (Q8TBB1 500-596): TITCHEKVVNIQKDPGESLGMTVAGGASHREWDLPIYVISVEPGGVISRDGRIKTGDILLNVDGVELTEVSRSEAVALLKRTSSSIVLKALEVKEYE

MAGI2_4, Q86UL8 = target: MAGI2_4, Q86UL8
Sequence of MAGI2_4, Q86UL8 (Q86UL8 772-865): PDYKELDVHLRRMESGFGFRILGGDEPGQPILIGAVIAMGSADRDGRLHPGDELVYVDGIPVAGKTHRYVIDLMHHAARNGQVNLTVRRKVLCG

MAGI2_6, Q86UL8 = target: MAGI2_6, Q86UL8
Sequence of MAGI2_6, Q86UL8 (Q86UL8 1141-1229): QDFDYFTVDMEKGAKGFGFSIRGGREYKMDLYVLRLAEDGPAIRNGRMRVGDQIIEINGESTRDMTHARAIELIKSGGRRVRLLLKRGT

MPDZ_5, O75970 = target: T8, MPDZ_5, O75970
T8 sequence (O75970 695-796, limits assumed, looked up): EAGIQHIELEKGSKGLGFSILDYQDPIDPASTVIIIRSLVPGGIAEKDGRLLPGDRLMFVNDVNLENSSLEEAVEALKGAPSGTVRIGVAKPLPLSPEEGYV

NOS1, P29475 = target: NOS1, P29475
Sequence of NOS1, P29475 (P29475 9-101): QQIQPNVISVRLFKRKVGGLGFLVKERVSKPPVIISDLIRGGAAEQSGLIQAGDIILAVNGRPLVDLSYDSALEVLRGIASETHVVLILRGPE

PDZD7_3, Q9H5P4 = target: T9, PDZD7_3, Q9H5P4
T9 sequence (Q9H5P4 857-944, limits assumed, looked up): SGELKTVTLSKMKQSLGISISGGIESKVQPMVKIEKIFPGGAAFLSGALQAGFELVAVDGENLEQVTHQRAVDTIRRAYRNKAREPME

SCRIB_2, Q14160 = target: SCRIB_2, Q14160
Sequence of SCRIB_2, Q14160 (Q14160 857-960): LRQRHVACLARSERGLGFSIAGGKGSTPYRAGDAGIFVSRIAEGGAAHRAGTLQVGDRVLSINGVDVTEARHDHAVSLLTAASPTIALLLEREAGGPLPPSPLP

SHANK1, Q9Y566 = target: T10, SHANK1, Q9Y566
T10 sequence (Q9Y566 658-767, limits assumed, looked up): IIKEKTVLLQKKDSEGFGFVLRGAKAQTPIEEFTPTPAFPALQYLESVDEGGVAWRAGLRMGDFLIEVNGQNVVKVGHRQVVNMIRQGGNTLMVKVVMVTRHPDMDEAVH

SNTB1, Q13884 = target: T11, SNTB1, Q13884
T11 sequence (Q13884 107-205, limits assumed, looked up): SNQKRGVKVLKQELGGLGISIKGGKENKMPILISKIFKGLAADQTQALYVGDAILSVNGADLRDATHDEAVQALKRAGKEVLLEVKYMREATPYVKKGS

[1] = plain residues with an end cap or a label only (N-terminal biotin on a linker: ttds)
[2] = plain residues with an end cap or a label only (N-terminal biotin on a linker: ahx)

B1: FRMPD4, Q14CM0 (peptide)
chain: RLPKIKETTV
pKd (APBA1_2, Q02410; [1]): below the threshold | pKd (APBA2_1, Q99767; [1]): below the threshold | pKd (CASK, O14936; [1]): below the threshold | pKd (DLG1_3, Q12959; [1]): 5.3 | pKd (DLG3_3, Q92796; [1]): 5.21 | pKd (DLG4_3, P78352; [1]): 5.25 | pKd (DVL3, Q92997; [1]): 3.43 | pKd (FRMPD1, Q5SYB0; [1]): below the threshold | pKd (FRMPD2_1, Q68DX3; [1]): below the threshold | pKd (FRMPD2_2, Q68DX3; [1]): below the threshold | pKd (FRMPD2_3, Q68DX3; [1]): below the threshold | pKd (GOPC, Q9HD26; [1]): 3.83 | pKd (GORASP1, Q9BQQ3; [1]): below the threshold | pKd (GRIP1_7, Q9Y3R0; [1]): below the threshold | pKd (Inadl_1, Q8NI35; [1]): below the threshold | pKd (Inadl_5, Q8NI35; [1]): below the threshold | pKd (LAP2, Q96RT1; [1]): 3.87 | pKd (LIN7C, Q9NUP9; [1]): 5.29 | pKd (LNX1_3, Q8TBB1; [1]): below the threshold | pKd (MAGI2_4, Q86UL8; [1]): 4.24 | pKd (MAGI2_6, Q86UL8; [1]): 3.98 | pKd (MPDZ_5, O75970; [1]): below the threshold | pKd (NOS1, P29475; [1]): below the threshold | pKd (PDZD7_3, Q9H5P4; [1]): 5.01 | pKd (SCRIB_2, Q14160; [1]): 4.61 | pKd (SHANK1, Q9Y566; [1]): below the threshold | pKd (SNTB1, Q13884; [1]): 5.17

B2: TJP3, O95049 (peptide)
chain: GYDWGPATDL
pKd (APBA1_2, Q02410; [2]): 4.17 | pKd (APBA2_1, Q99767; [2]): below the threshold | pKd (CASK, O14936; [2]): below the threshold | pKd (DLG1_3, Q12959; [2]): below the threshold | pKd (DLG3_3, Q92796; [2]): below the threshold | pKd (DLG4_3, P78352; [2]): below the threshold | pKd (DVL3, Q92997; [2]): below the threshold | pKd (FRMPD1, Q5SYB0; [2]): below the threshold | pKd (FRMPD2_1, Q68DX3; [2]): below the threshold | pKd (FRMPD2_2, Q68DX3; [2]): 3.54 | pKd (FRMPD2_3, Q68DX3; [2]): below the threshold | pKd (GOPC, Q9HD26; [2]): 3.93 | pKd (GORASP1, Q9BQQ3; [2]): below the threshold | pKd (GRIP1_7, Q9Y3R0; [2]): below the threshold | pKd (Inadl_1, Q8NI35; [2]): below the threshold | pKd (Inadl_5, Q8NI35; [2]): below the threshold | pKd (LAP2, Q96RT1; [2]): 3.73 | pKd (LIN7C, Q9NUP9; [2]): 3.71 | pKd (LNX1_3, Q8TBB1; [2]): below the threshold | pKd (MAGI2_4, Q86UL8; [2]): 3.49 | pKd (MAGI2_6, Q86UL8; [2]): 5.24 | pKd (MPDZ_5, O75970; [2]): below the threshold | pKd (NOS1, P29475; [2]): below the threshold | pKd (PDZD7_3, Q9H5P4; [2]): 4.14 | pKd (SCRIB_2, Q14160; [2]): 3.78 | pKd (SHANK1, Q9Y566; [2]): 4.39 | pKd (SNTB1, Q13884; [2]): 4.08

B3: ATP2B4, P23634 (peptide)
chain: SSLQSLETSV
pKd (APBA1_2, Q02410; [1]): 4.13 | pKd (APBA2_1, Q99767; [1]): below the threshold | pKd (CASK, O14936; [1]): below the threshold | pKd (DLG1_3, Q12959; [1]): 4.86 | pKd (DLG3_3, Q92796; [1]): 4.73 | pKd (DLG4_3, P78352; [1]): 4.65 | pKd (DVL3, Q92997; [1]): 3.6 | pKd (FRMPD1, Q5SYB0; [1]): below the threshold | pKd (FRMPD2_1, Q68DX3; [1]): 4.17 | pKd (FRMPD2_2, Q68DX3; [1]): 4.64 | pKd (FRMPD2_3, Q68DX3; [1]): below the threshold | pKd (GOPC, Q9HD26; [1]): below the threshold | pKd (GORASP1, Q9BQQ3; [1]): below the threshold | pKd (GRIP1_7, Q9Y3R0; [1]): below the threshold | pKd (Inadl_1, Q8NI35; [1]): below the threshold | pKd (Inadl_5, Q8NI35; [1]): below the threshold | pKd (LAP2, Q96RT1; [1]): 4.66 | pKd (LIN7C, Q9NUP9; [1]): 4.8 | pKd (LNX1_3, Q8TBB1; [1]): 3.59 | pKd (MAGI2_4, Q86UL8; [1]): 4.19 | pKd (MAGI2_6, Q86UL8; [1]): 4.55 | pKd (MPDZ_5, O75970; [1]): 3.58 | pKd (NOS1, P29475; [1]): 4.04 | pKd (PDZD7_3, Q9H5P4; [1]): 4.48 | pKd (SCRIB_2, Q14160; [1]): 4.9 | pKd (SHANK1, Q9Y566; [1]): 3.94 | pKd (SNTB1, Q13884; [1]): 5.59

B4: HPV30-E6, P36809 (peptide)
chain: RHTTSTETAV
pKd (APBA1_2, Q02410; [1]): 4.23 | pKd (APBA2_1, Q99767; [1]): below the threshold | pKd (CASK, O14936; [1]): below the threshold | pKd (DLG1_3, Q12959; [1]): 4.39 | pKd (DLG3_3, Q92796; [1]): 4.66 | pKd (DLG4_3, P78352; [1]): 4.35 | pKd (DVL3, Q92997; [1]): below the threshold | pKd (FRMPD1, Q5SYB0; [1]): below the threshold | pKd (FRMPD2_1, Q68DX3; [1]): 4.14 | pKd (FRMPD2_2, Q68DX3; [1]): 4.23 | pKd (FRMPD2_3, Q68DX3; [1]): 3.87 | pKd (GOPC, Q9HD26; [1]): 4.14 | pKd (GORASP1, Q9BQQ3; [1]): below the threshold | pKd (GRIP1_7, Q9Y3R0; [1]): below the threshold | pKd (Inadl_1, Q8NI35; [1]): below the threshold | pKd (Inadl_5, Q8NI35; [1]): below the threshold | pKd (LAP2, Q96RT1; [1]): 4.46 | pKd (LIN7C, Q9NUP9; [1]): 4.19 | pKd (LNX1_3, Q8TBB1; [1]): below the threshold | pKd (MAGI2_4, Q86UL8; [1]): 4.07 | pKd (MAGI2_6, Q86UL8; [1]): 4.19 | pKd (MPDZ_5, O75970; [1]): below the threshold | pKd (NOS1, P29475; [1]): 4.63 | pKd (PDZD7_3, Q9H5P4; [1]): 4.1 | pKd (SCRIB_2, Q14160; [1]): 5.11 | pKd (SHANK1, Q9Y566; [1]): 3.73 | pKd (SNTB1, Q13884; [1]): 5.1
